Data on one molecule can be found in patent publication US20090053243A1 (INSTITUTE FOR ANTIBODIES, published 2009).

This assay addresses T1, IgSF4 (Immunoglobulin superfamily member 4), human, as expressed by human cell lines (human, UniProt Q9BY67 45-442).
T1 construct: also called BL2; ST17
T1 sequence: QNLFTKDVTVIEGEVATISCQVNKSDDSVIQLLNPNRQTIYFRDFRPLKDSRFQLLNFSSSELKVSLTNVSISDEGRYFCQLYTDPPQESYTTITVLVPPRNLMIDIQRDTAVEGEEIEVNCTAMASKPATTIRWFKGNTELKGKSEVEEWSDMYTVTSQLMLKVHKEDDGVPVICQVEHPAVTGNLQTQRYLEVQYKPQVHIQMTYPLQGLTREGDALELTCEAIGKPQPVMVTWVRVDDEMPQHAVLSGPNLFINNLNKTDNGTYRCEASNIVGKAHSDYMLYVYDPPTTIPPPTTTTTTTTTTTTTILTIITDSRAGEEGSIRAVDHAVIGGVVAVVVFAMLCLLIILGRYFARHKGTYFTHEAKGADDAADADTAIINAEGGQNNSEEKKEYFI
The experiment in a line: statement in the ADCC experiment on VMRC-LCD target cells.

Protocol: As target cells to be used, lung cancer derived cultured cells VMRC-LCD (provided from Japanese Collection of Research Bioresources) was grown in a liquid culture medium 1 (Minimum Essential Medium Alpha Medium: Invitrogen, 10% (v/v) fetal bovine serum: Equitic-Bio, 1% (v/v) Penicillin-Streptomycin Solution: Sigma-Aldrich) on a culture dish having a diameter of 150 mm. The liquid culture medium was removed, cells were washed with 10 ml of PBS twice, and liquid was removed. To this, 5 ml of 4% (w/v) collagenase Type IV (Invitrogen) was added and maintained at 37° C. for 10 minutes, thereby peeling the cells off from the culture dish.
Into a U-bottom 96-well multiplate (Becton Dickinson), 66 μl/well of target cells (2×10⁴ cells) were placed. To this, 66 μl of IgG antibody (3 μg/ml) was added, and then 66 μl of peripheral blood mononuclear leukocyte suspension (7.5×10⁵ cells) was added. The E/T ratio (ratio of the effector cells and target cells) was made to be 20. In order to prompt to associate cells, centrifugation (60×g, 4° C., 5 minutes) was carried out so as to precipitate cells in the bottom. Then, the cells were incubated for 240 minutes in a culture device under conditions of 37° C. and 5% CO₂, and thus the ADCC reaction was induced. Each antibody sample was prepared as a CTM solution. […] Furthermore, in each experiment group, three wells were used.

B1: IgG type antibody 035-029 (antibody, V domains shown)
VH: EVQLVESGGGLVKPGGSLRLSCAASGFTFSSYAMSWVRQAPGKGLEWVSAISGSGGSTYYADSVKGRFTISRDNSKNTLYLQMNSLRAEDTALYYCARDNWYFDLWGRGTLVTVSS
VL: SSELTQDPAVSVALGQTVRITCQGDSLRSYYASWYQQKPGQAPVLVIYGKNNRLSGIPDRFSGSSSGNTASLTITGAQAEDEADYYCNSRDSSGNHVVFGGGTKLTVLG
notes: also called IgG antibody clone 035-029; human IgG type antibody clone recognizing IgSF4
As for B1, the binding result is recorded as “binds”.
